Reference: doi:10.1101/054106

Target: potato ADP-glucose pyrophosphorylase (AGPase) small subunit, wild type (potato (S. tuberosum)) (UniProt P23509)
Test: native gel or EMSA

Sequence of potato ADP-glucose pyrophosphorylase (AGPase) small subunit, wild type (potato (S. tuberosum)) (P23509 73-521): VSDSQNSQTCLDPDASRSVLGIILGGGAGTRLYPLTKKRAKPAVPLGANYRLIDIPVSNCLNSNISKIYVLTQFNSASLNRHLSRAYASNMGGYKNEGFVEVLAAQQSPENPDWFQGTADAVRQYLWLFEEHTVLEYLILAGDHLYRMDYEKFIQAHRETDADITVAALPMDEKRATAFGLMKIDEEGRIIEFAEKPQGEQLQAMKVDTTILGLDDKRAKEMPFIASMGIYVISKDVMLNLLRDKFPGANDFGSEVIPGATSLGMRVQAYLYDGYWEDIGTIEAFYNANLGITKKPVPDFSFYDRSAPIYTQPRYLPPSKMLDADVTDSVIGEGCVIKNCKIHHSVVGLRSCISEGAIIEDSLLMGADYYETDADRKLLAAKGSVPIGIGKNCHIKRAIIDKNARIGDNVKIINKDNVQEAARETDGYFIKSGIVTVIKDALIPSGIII

potato ADP-glucose pyrophosphorylase (AGPase) large subunit, E370G mutant (enzyme)
percent in the form of heterotetramers: 90%

potato ADP-glucose pyrophosphorylase (AGPase) large subunit, E370R mutant (enzyme)
percent of total band intensity in the dimer band: 40%
